Reference: article PMC6751060 (mBio, 2019)

B4: RicA residues 1 to 122 (C-terminally truncated, for crystallography) (domain or fragment, B. subtilis, UniProt O31779 1-122, looked up)
chain: MTLYSKKDIVQQARNLAKMISETEEVDFFKRAEAQINENDKVSTIVNQIKALQKQAVNLKHYEKHEALKQVEAKIDALQEELEEIPVIQEFRDSQMEVNDLLQLVAHTISNQVTNEIITSTG
notes: also called truncated RicA; RicA (amino acids 1 to 122)

How the values were obtained:
[1] = biological target: RicA of Bacillus anthracis (B. anthracis); test: AUC
[2] = biological target: T1, RicF (YlbF) of Bacillus subtilis (B. subtilis, UniProt O34412 1-149); test: pull-down; settings: partners not purified
T1 construct: also called RicF^Bsu
T1 sequence (looked up): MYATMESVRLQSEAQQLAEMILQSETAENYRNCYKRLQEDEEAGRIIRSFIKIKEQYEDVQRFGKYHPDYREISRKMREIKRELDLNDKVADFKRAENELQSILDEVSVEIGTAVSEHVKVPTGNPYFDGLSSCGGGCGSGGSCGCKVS

[3] = biological target: the molecule itself; test: SEC; […]; 20 mM Tris-HCl pH 8.0, 150 mM NaCl, 1 mM DTT
[4] = biological target: B4; test: crystal structure; RicAF crystals; hanging drop, 18% PEG 500 MME, 8% MPD, 100 mM sodium nitrate, 100 mM MOPS, sodium HEPES pH 7.3; settings: both partners purified
crystal structure = biological target: the molecule itself; test: crystal structure

Work on “RicF of Bacillus anthracis (natural protein)” yielded a stoichiometry N [1] of 1.

B1: RicA (YmcA) of Bacillus subtilis (natural protein, B. subtilis, UniProt O31779 1-143, looked up)
chain: MTLYSKKDIVQQARNLAKMISETEEVDFFKRAEAQINENDKVSTIVNQIKALQKQAVNLKHYEKHEALKQVEAKIDALQEELEEIPVIQEFRDSQMEVNDLLQLVAHTISNQVTNEIITSTGGDLLKGETGSKVKHSNNSCSL
notes: also called RicA^Bsu
B1: binds [2].

B2: RicA (YmcA) of Bacillus subtilis, expressed alone and purified (natural protein, B. subtilis)
chain: MTLYSKKDIVQQARNLAKMISETEEVDFFKRAEAQINENDKVSTIVNQIKALQKQAVNLKHYEKHEALKQVEAKIDALQEELEEIPVIQEFRDSQMEVNDLLQLVAHTISNQVTNEIITSTGGDLLKGETGSKVKHSNNSCSL
notes: also called RicA dimer; GST-RicA
B2 was tested, and the “stoichiometry N” value [3] was 2.

B3: RicF residues 1 to 121 (C-terminally truncated, for crystallography) (domain or fragment, B. subtilis, UniProt O34412 1-121, looked up)
chain: MYATMESVRLQSEAQQLAEMILQSETAENYRNCYKRLQEDEEAGRIIRSFIKIKEQYEDVQRFGKYHPDYREISRKMREIKRELDLNDKVADFKRAENELQSILDEVSVEIGTAVSEHVKV
notes: also called truncated RicF
B3: binds [4].

B4: binds (crystal structure).
